Source: patent US20040072256A1 (published 2004)

Legend:
[1] = molecular target: T1, hemagglutinin (HA) of Influenza virus A/PR/8/34 (H1N1) (Influenza virus A/PR/8/34 (H1N1), UniProt P03452 18-565); experiment: flow cytometry on IV-infected vs uninfected 1106mel cells
T1 construct: whole, on cells; On IV-infected 1106mel cells; also called IV HA; viral HA

[2] = molecular target: T2, hemagglutinin-neuraminidase (HN) glycoprotein of Sendai virus (Sendai virus); experiment: flow cytometry, SV-infected vs uninfected 721.221 cells
T2 construct: whole, on cells; also called SV HN; Sendai HN
T2 sequence (P19758 whole entry): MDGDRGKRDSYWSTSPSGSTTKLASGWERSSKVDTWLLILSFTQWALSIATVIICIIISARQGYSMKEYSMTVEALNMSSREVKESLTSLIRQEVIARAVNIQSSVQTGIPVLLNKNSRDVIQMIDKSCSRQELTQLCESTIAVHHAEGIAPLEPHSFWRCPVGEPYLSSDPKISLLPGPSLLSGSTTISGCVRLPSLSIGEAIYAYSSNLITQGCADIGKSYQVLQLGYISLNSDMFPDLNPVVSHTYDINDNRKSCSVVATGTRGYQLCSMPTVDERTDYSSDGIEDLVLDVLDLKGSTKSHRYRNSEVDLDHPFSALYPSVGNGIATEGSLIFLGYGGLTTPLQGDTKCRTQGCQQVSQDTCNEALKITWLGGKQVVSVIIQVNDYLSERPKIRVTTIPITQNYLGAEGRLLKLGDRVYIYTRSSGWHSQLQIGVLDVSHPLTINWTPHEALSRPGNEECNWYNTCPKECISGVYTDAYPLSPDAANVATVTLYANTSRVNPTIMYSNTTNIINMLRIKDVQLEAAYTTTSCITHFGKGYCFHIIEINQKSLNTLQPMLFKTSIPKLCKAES

[3] = molecular target: T1, hemagglutinin (HA) of Influenza virus …; experiment: flow cytometry, IV-infected vs uninfected 1106mel cells
[4] = molecular target: T2, hemagglutinin-neuraminidase (HN) …; experiment: flow cytometry, 293T cells transfected with Sendai HN cDNA vs mock
[5] = molecular target: T1, hemagglutinin (HA) of Influenza virus …; experiment: flow cytometry on IV-infected 1106mel cells (FIG. 11)

Binder | binding result [1] | fold increase in staining on SV infection [2] [fold] | further results
NKAT-8-Ig fusion protein (Fc fusion, extracellular domain; not shown: Fc portion of human IgG1) QEGVHRKPSFLALPGHLVKSEETVILQCWSDVMFEHFLLHREGKFNNTLHLIGEHHDGVSKANFSIGPMMPVLAGTYRCYGSVPHSPYQLSAPSDPLDMVIIGLYEKPSLSAQPGPTVQAGENVTLSCSSRSSYDMYHLSREGEAHERRLPAVRSINGTFQADFPLGPATHGGTYRCFGSFRDAPYEWSNSSDPLLVSVTGNPSNSWPSPTEPSSKTGNPRHLH | no binding | – | –
NKp30-Ig fusion protein (Fc fusion) LWVSQPPEIRTLEGSSAFLPCSFNASQGRLAIGSVTWFRDEVVPGKEVRNGTPEFRGRLAPLASSRFLHDHQAELHIRDVRGHDASIYVCRVEVLGLGVGTGNGTRLVVEKEHPQLGDPEPKSSDKTHTCPPCPAPEFEGAPSVFLFPPKPKDTLMISRTPEVTCVVVDVSHEDPEVKFNWYVDGVEVHNAKTKPREEQYNSTYRVVSVLTVLHQDWLNGKEYKCKVSNKALPAPIEKTISKAKGQPREPQVYTLPPSRDELTKNQVSLTCLVKGFYPSDIAVEWESNGQPENNYKTTPPVLDSDGSFFLYSKLTVDKSRWQQGNVFSCSVMHEALHNHYTQKSLSLSPGK | no binding | – | –
NKp46D2-Ig fusion protein (Fc fusion, sialic acid residues (binding depends on them), Junction and leader used for secretion not described) YDTPTLSVHPGPEVISGEKVTFYCRLDTATSMFLLLKEGRSSHVQRGYGKVQAEFPLGPVTTAHRGTYRCFGSYNNHAWSFPSEPVKLLVTGDIENTSLAPEDPTFPADTWGTYLLTTETGLQKDHALWDHTAQDPEPKSSDKTHTCPPCPAPEFEGAPSVFLFPPKPKDTLMISRTPEVTCVVVDVSHEDPEVKFNWYVDGVEVHNAKTKPREEQYNSTYRVVSVLTVLHQDWLNGKEYKCKVSNKALPAPIEKTISKAKGQPREPQVYTLPPSRDELTKNQVSLTCLVKGFYPSDIAVEWESNGQPENNYKTTPPVLDSDGSFFLYSKLTVDKSRWQQGNVFSCSVMHEALHNHYTQKSLSLSPGK | – | ~10 | –
KIR-1-Ig fusion protein (Fc fusion, extracellular domain; not shown: Fc portion of human IgG1) HEGVHRKPSLLAHPGRLVKSEETVILQCWSDVMFEHFLLHREGMFNDTLRLIGEHHDGVSKANFSISRMTQDLAGTYRCYGSVTHSPYQVSAPSDPLDIVIIGLYEKPSLSAQLGPTVLAGENVTLSCSSRSSYDMYHLSREGEAHERRLPAGPKVNGTFQADFPLGPATHGGTYRCFGSFHDSPYEWSKSSDPLLVSVTGNPSNSWPSPTEPSSKTGNPRHLH | no binding | – | –
NKp44-Ig fusion protein (Fc fusion, sialylated oligosaccharides (binding to HA depends on them), Made in COS-7, purified on protein G) QSKAQVLQSVAGQTLTVRCQYPPTGSLYEKKGWCKEASALVCIRLVTSSKPRTMAWTSRFTIWDDPDAGFFTVTMTDLREEDSGHYWCRIYRPSDNSVSKSVRFYLVVSPASASTQTPWTPRDLVSSQTQTQSCVPPTAGARQAPESPSTIPVPSQPQNSTLRPGPAAPDPEPKSSDKTHTCPPCPAPEFEGAPSVFLFPPKPKDTLMISRTPEVTCVVVDVSHEDPEVKFNWYVDGVEVHNAKTKPREEQYNSTYRVVSVLTVLHQDWLNGKEYKCKVSNKALPAPIEKTISKAKGQPREPQVYTLPPSRDELTKNQVSLTCLVKGFYPSDIAVEWESNGQPENNYKTTPPVLDSDGSFFLYSKLTVDKSRWQQGNVFSCSVMHEALHNHYTQKSLSLSPGK | – | 10 | fold increase in staining on IV infection [3]: ~4 fold; fold increase in staining on HN transfection [4]: 2 fold
NKp46D1-Ig fusion protein (Fc fusion, Junction between domain and Fc not described) QQQTLPKPFIWAEPHFMVPKEKQVTICCQGNYGAVEYQLHFEGSLFAVDRPKPPERINKVKFYIPDMNSRMAGQYSCIYRVGELWSEPSNLLDLVVTEMDPEPKSSDKTHTCPPCPAPEFEGAPSVFLFPPKPKDTLMISRTPEVTCVVVDVSHEDPEVKFNWYVDGVEVHNAKTKPREEQYNSTYRVVSVLTVLHQDWLNGKEYKCKVSNKALPAPIEKTISKAKGQPREPQVYTLPPSRDELTKNQVSLTCLVKGFYPSDIAVEWESNGQPENNYKTTPPVLDSDGSFFLYSKLTVDKSRWQQGNVFSCSVMHEALHNHYTQKSLSLSPGK | – | – | binding result [5]: no binding
